In the supplement of paper PMC10567573:

B1: SPSB1 (parent)
chain: DMRDPTYRPLKQELQGLDYCKPTR

Variants of: B1
Assay: protein stability index of a GFP-peptide fusion (GPS, HEK-293T) (PSI 1-6); higher = more stable
Details: c terminus: a fixed tail appended
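Further: lentivirally expressed fusions sorted by FACS into six bins by GFP to DsRed ratio, PSI derived from sequencing read proportions per bin multiplied by bin number.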

Variant | protein stability index
DMRDPTYRPLKQELQGLDYCKWTR [P22W] | 2.84
DMRDPTYRPLKQELQGLDYCKATR [P22A] | 3.44
DMRDPTYRPLKQELQGLDYCKDTR [P22D] | 4.68
DMRDPTYRPLKQELQGLDYCKETR [P22E] | 4.79
DMRDPTYRPLKQELQGLDYCKLTR [P22L] | 3.18
DMRDPTYRPLKQELQGLDYCKRTR [P22R] | 4.4
DMRDPTYRPLKQELQGLDYCKVTR [P22V] | 2.9
DMRDPTYRPLKQELQGLDYCKFTR [P22F] | 2.85
DMRDPTYRPLKQELQGLDYCKCTR [P22C] | 3.71
DMRDPTYRPLKQELQGLDYCKKTR [P22K] | 4.35
DMRDPTYRPLKQELQGLDYCKITR [P22I] | 2.29
DMRDPTYRPLKQELQGLDYCKYTR [P22Y] | 3.13
DMRDPTYRPLKQELQGLDYCKQTR [P22Q] | 4.26
DMRDPTYRPLKQELQGLDYCKHTR [P22H] | 4.15
DMRDPTYRPLKQELQGLDYCKMTR [P22M] | 3.07
DMRDPTYRPLKQELQGLDYCKGTR [P22G] | 4.1
DMRDPTYRPLKQELQGLDYCKNTR [P22N] | 3.92
DMRDPTYRPLKQELQGLDYCKTTR [P22T] | 3.07
DMRDPTYRPLKQELQGLDYCKSTR [P22S] | 3.68
DMRDPTYRPLKQELQMLDYCKPTR [G16M] | 3.35
DMRDPTYRPLKQELQRLDYCKPTR [G16R] | 3.78
DMRDPTYRPLKQELQTLDYCKPTR [G16T] | 3.36
DMRDPTYRPLKQELQVLDYCKPTR [G16V] | 2.71
DMRDPTYRPLKQELQWLDYCKPTR [G16W] | 3.12
DMRDPTYRPLKQELQQLDYCKPTR [G16Q] | 3.94
DMRDPTYRPLKQELQSLDYCKPTR [G16S] | 3.32
DMRDPTYRPLKQELQPLDYCKPTR [G16P] | 3.06

Variant | protein stability index
DMRDPTYRPLKQELQNLDYCKPTR [G16N] | 3.24
DMRDPTYRPLKQELQGLVYCKPTR [D18V] | 3.58
DMRDPTYRPLKQELQGLCYCKPTR [D18C] | 3.08
DMRDPTYRPLKQELQGLWYCKPTR [D18W] | 2.1
DMRDPTYRPLKQELQGLPYCKPTR [D18P] | 3.63
DMRDPTYRPLKQELQGLTYCKPTR [D18T] | 3.66
DMRDPTYRPLKQELQGLFYCKPTR [D18F] | 2.67
DMRDPTYRPLKQELQGLLYCKPTR [D18L] | 2.95
DMRDPTYRPLKQELQGLAYCKPTR [D18A] | 3.81
DMRDPTYRPLKQELQGLSYCKPTR [D18S] | 3.48
DMRDPTYRPLKQELQGLQYCKPTR [D18Q] | 3.83
DMRDPTYRPLKQELQGLGYCKPTR [D18G] | 3.81
DMRDPTYRPLKQELQGLNYCKPTR [D18N] | 2.28
DMRDPTYRPLKQELQGLRYCKPTR [D18R] | 3.97
DMRDPTYRPLKQELQGLHYCKPTR [D18H] | 3.73
DMRDPTYRPLKQELQGLKYCKPTR [D18K] | 3.53
DMRDPTYRPLKQELQGLIYCKPTR [D18I] | 2.89
DMRDPTYRPLKQELQGLEYCKPTR [D18E] | 2.76
DMRDPTYRPLKQELQGLYYCKPTR [D18Y] | 2.99
DMRDPTYRPLKQELQGLMYCKPTR [D18M] | 2.94
DMRDPTYRPLKQELQGVDYCKPTR [L17V] | 4
DMRDPTYRPLKQELQGPDYCKPTR [L17P] | 3.96
DMRDPTYRPLKQELQGIDYCKPTR [L17I] | 4.02
DMRDPTYRPLKQELQGEDYCKPTR [L17E] | 4.37
DMRDPTYRPLKQELQGSDYCKPTR [L17S] | 4.18
DMRDPTYRPLKQELQGWDYCKPTR [L17W] | 4.02
DMRDPTYRPLKQELQGHDYCKPTR [L17H] | 4.39

Variant | protein stability index
DMRDPTYRPLKQELQGRDYCKPTR [L17R] | 3.8
DMRDPTYRPLKQELQGKDYCKPTR [L17K] | 3.96
DMRDPTYRPLKQELQGGDYCKPTR [L17G] | 3.51
DMRDPTYRPLKQELQGDDYCKPTR [L17D] | 4.65
DMRDPTYRPLKQELQGCDYCKPTR [L17C] | 3.85
DMRDPTYRPLKQELQGADYCKPTR [L17A] | 3.82
DMRDPTYRPLKQELQGFDYCKPTR [L17F] | 3.08
DMRDPTYRPLKQELQGTDYCKPTR [L17T] | 4.29
DMRDPTYRPLKQELQGMDYCKPTR [L17M] | 4.12
DMRDPTYRPLKQELQGQDYCKPTR [L17Q] | 4.51
DMRDPTYRPLKQELQGYDYCKPTR [L17Y] | 3.7
DMRDPTYRPLKQELQGNDYCKPTR [L17N] | 4.33
DMRDPTYRPLKQELQGLDYQKPTR [C20Q] | 2.8
DMRDPTYRPLKQELQGLDYAKPTR [C20A] | 3.34
DMRDPTYRPLKQELQGLDYLKPTR [C20L] | 2.98
DMRDPTYRPLKQELQGLDYVKPTR [C20V] | 1.78
DMRDPTYRPLKQELQGLDYWKPTR [C20W] | 2.15
DMRDPTYRPLKQELQGLDYRKPTR [C20R] | 4.42
DMRDPTYRPLKQELQGLDYNKPTR [C20N] | 4.05
DMRDPTYRPLKQELQGLDYEKPTR [C20E] | 4.41
DMRDPTYRPLKQELQGLDYIKPTR [C20I] | 2.77
DMRDPTYRPLKQELQGLDYDKPTR [C20D] | 4.05
DMRDPTYRPLKQELQGLDYGKPTR [C20G] | 4.3
DMRDPTYRPLKQELQGLDYFKPTR [C20F] | 3.31
DMRDPTYRPLKQELQGLDYHKPTR [C20H] | 2.93
